Data taken from PMC11544220 (Scientific Reports, 2024).

Tests used:
native MS = biological target: the molecule itself; assay: native MS
[1] = biological target: Stl^NT-Avi, biotinylated Stl 1-159 for the BLI sensor (Staphylococcus aureus, UniProt Q9F0J8 1-159, biotin on the Avi-tag); assay: BLI
[2] = biological target: Stl-Avi, biotinylated full-length Stl for the BLI sensor (Staphylococcus aureus, UniProt Q9F0J8 1-267, biotin on the Avi-tag); assay: BLI

B1: Mycobacterium tuberculosis dUTPase, wild type (MtDUT^WT) (enzyme)
chain: MSTTLAIVRLDPGLPLPSRAHDGDAGVDLYSAEDVELAPGRRALVRTGVAVAVPFGMVGLVHPRSGLATRVGLSIVNSPGTIDAGYRGEIKVALINLDPAAPIVVHRGDRIAQLLVQRVELVELVEVSSFDEAGLASTSRGDGGHGSSGGHASL
stoichiometry N (native MS): 3 subunits in the oligomer
Kd [1]: 0.19 ± 0.001 nM
koff [1]: 0.000103 ± 0.04 s⁻¹
kon [1]: 542000 ± 0.01 M⁻¹ s⁻¹
Kd [2]: < 0.001 nM
koff [2]: < 1e-07 s⁻¹
kon [2]: 270000 ± 0.01 M⁻¹ s⁻¹
